# B1: TPR t1 (parent)
# chain: GACCAAUCUGCCCUCAGAGCUCGAGAACAUCUUCGGAUGCAGAGGAGGCAGGCUUCGGUGGCGCGAUAGCGCCAACGUCCUCAACCUCCAAUGCAUCCCACCACAUGAUGAUGCCUGAAGAGCCUUGGUUUUUUG
# Variants of: B1
# Assay: polymerase ribozyme fitness, log enrichment relative to wild type (log ratio); higher = more active; in vitro selection for triplet polymerase activity
# Summary of the method: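 Fitness measures genotype enrichment against wild-type enrichment on a logarithmic scale, with inverse-variance-weighted averaging of replicates. The logarithm is base 2, and genotypes were kept only with ≥10 input reads and ≥1 read per output in Illumina sequencing. The sequenced libraries came from one triplicate in vitro selection round, including frozen incubation at −7 °C, of PCR-built, transcribed mutant libraries of each subunit of a heterodimeric triplet polymerase ribozyme.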
row,Variant,polymerase ribozyme fitness (log ratio)
1,A16U G47A C56G C86U C101A A121C,-0.796
2,G45U U106A,-1.76
3,U54G C101G C115G U116A,-6.37
4,C40A C79A,-2.9
5,U38C G42U C62G,-5.61
6,C12A C80U G120U U132A,1.64
7,G10A C53G G69U C88U G110U,-0.0648
8,U9A C11A C70U C85U,-1.15
9,C114A U131A,-0.246
10,C8G U9G,0.256
11,C3U U87A A103C,-5.54
12,A24C G39A U55C C104A C124G,-5.87
13,G47A A50U,-1.57
14,U59C U96C,-0.447
15,C70U G120U,0.0972
16,C4U C11A G61U C98U G113A U126G,-5.59
17,G44A A46U A91G U92A,-5.83
18,U9C C82A U109G C124U U131C,-3.57
19,G44U C123U,0.929
20,G44A C72G,-1.16
21,C11G C104A,-1.42
22,C8U U92A,-2.72
23,A37G C53G G69A G110U U132C,-6.38
24,C15G A16C G51U G61U G71C C79A U112G,-6.41

row,Variant,polymerase ribozyme fitness (log ratio)
1,G10U C53U G65A A91U C104G A121U,-7.6
2,A5C C34A G42C C88U,-5.7
3,G60A C79A A84U,-2.32
4,A41U G63A C86G C101U,-4.01
5,C72U C79A A83G C115G C123A U131G,-4.99
6,C31U A118U C123U,-4.23
7,G44C C99U G110A,-6.64
8,C49A A66C U87A,-1.04
9,C114A U129G U130C,-2.79
10,C8G C15U A46C C72U G93A G110A,-2.41
11,C12G G57A G61U C80A,-2.05
12,C15U C56U,-1.21
13,G35U C53U G69U G110U,-4.63
14,G47U U78G G135A,-1.83
15,C12A C72G,-0.22
16,C11U C76U,-0.741
17,G48U U96C U116A A121U,-1.06
18,C22A G51A G71C A111C,-6.96
19,C34U C64U C88U,-4.34
20,G42A A111G G113C A121C,-0.948
21,A105U G120U,-2.54
22,A26C G47U C56U U112C,-5.64
23,A2G C88G G113C G128A U129G,-5.6
24,C4G C123G G128C,-0.896

row,Variant,polymerase ribozyme fitness (log ratio)
1,C79U C124G,1.81
2,C53A A66U C72U C123U,0.234
3,C13G A43U C101U,-3.57
4,A50U G117C G120C,-5.84
5,C34A C40U C85G,-4.94
6,C56A C79G C123G U133A,1.29
7,C56U U67G G71A C80U G120C,-6.12
8,U21C C124U,1.84
9,G10C G42A A43U C80A U132A,-5.05
10,A26G C89U,-2.94
11,C12G A27G C64U C104U,-2.48
12,G42A A83U,-2.65
13,G23A C56U G58C C70U C104G G122A,-7.86
14,G17U C49A G61A,-2.67
15,G44A G113A U130C,-2.43
16,G10U C11G G47C G58A C62G,-3.87
17,G60A C99A A103C A111C,-6.52
18,G57A A103G,-4.05
19,U21G C64U G77A G93U,-3.27
20,C11A A46U C53A C72A,-2.19
21,C13U G35A C86G,-3.98
22,C4G C12A U87G C115U,-3.74
23,C11G C15U C20U C70G,-3.71
24,G42A U81A,-4.25

row,Variant,polymerase ribozyme fitness (log ratio)
1,C86G G93C U132C,-2.42
2,C11U A46C G51U C86G C102A,-8.49
3,G45U A91C,-2.07
4,C34G C115G,-7.42
5,G63A U112A G122C,-1.55
6,A50U U59C,-0.6
7,A2C G57C C72A C101A G135U,-3.06
8,C73G U109G,-6.77
9,A5G G45A,-0.52
10,C40G C70A,-3.86
11,C62U A100C U112C,-1.92
12,C15G A18U,-3.36
13,A16C C56U G69U G120A,-3.38
14,A5G G120C,0.0754
15,C85U C86G,-1.13
16,A6U G69A,-2.02
17,A2U G23U G60U C79U G110A,-6
18,U59C C82A C88G,-2.83
19,A5C A84U,-1.12
20,C73A C82U,-0.0503
21,A50C G71A U133C,-0.939
22,C12G C28U C53A,-2.29
23,U9G C13G C53G C56U C86U A111U,-2.52
24,U7G G71C A111G C115U G120U,-4.01

row,Variant,polymerase ribozyme fitness (log ratio)
1,C31U C40U G45A,-6.8
2,G23A A50U,-5.56
3,C12U G36A A83C U106A U129C G135U,-1.4
4,U14A G60U U78C,-3.65
5,C72U U109A,-5.61
6,C53U U109G,-4.32
7,U7G G10U U78C C101A G122A,-1.81
8,C3U G69U G113C,-1.33
9,C28G G48U U92G C124A,-5.41
10,C3A G61C,-3.47
11,G23A C73A,-5.86
12,G36U G120U,0.153
13,C28U G52A C70U,-3.7
14,C8A G69U C88G G128C,-3.18
15,U32G C62U A105U U112G,-6.91
16,U7A C11A A26U G63A U112A G127U,-3.63
17,A43U G44U G48A G122A,-2.63
18,U54A C115U,-1.11
19,C3U G69U C98A G113A,-1.77
20,G69A A91C,-5.04
21,G63A A83C G127A G128C,-3.2
22,G44U A95G C99U,-4.84
23,U14C A75G,-1.81
24,G47U U96A,-2.1

row,Variant,polymerase ribozyme fitness (log ratio)
1,U38A A41U G44U G113A,-5.6
2,A43U C102A C114A,-5.12
3,C97U C101U U116G A118G,-4.15
4,A26U C115U,-4.53
5,C12A C22A G52A A84U A91C G120C,-6.58
6,G42C G117C,-4.02
7,G19C C20A C56U G71A A95U C102U U116C C123U U126G,-5.6
8,A6C C97A,-4.04
9,C13G U132A,-1.5
10,C11A C70U,-2.4
11,A41U U78C A121G U131G,-0.28
12,G47A C123A,-0.394
13,A95C U109A,-7.08
14,C79U C82A,-1.23
15,G19U G61A C82G C124A,-2.1
16,G71C C89G U130C,-4.18
17,G17C A90C A121C,-1.46
18,C104A U125G,-2.44
19,G36A G48U C56U U112A G117U G120U G127C U133A,-6.88
20,G44U G45A U54A,-3.42
21,C34G G48U G122A,-7.95
22,C64G C70A G93A C101A G120A G127A U131G,-6.32
23,G69U G120A,1.25
24,G45C G69A G117U,-6.59

row,Variant,polymerase ribozyme fitness (log ratio)
1,G51U C73U U112C,-1.32
2,G48U C123A U126A,-2.05
3,C20A G61U G63A C72U U92C C99G C101A C123U,-6.1
4,G17A G61A,-2.34
5,C98U C123U,-1.28
6,A18C A83C A91G A111C,-3.03
7,C13G C98U,-2.7
8,C34U U106A,-4.95
9,A37G G57A U106C G120C U129A,-3.11
10,G57U C62G A121G U130A,-0.352
11,C40U C88A,-0.911
12,G39A C49A,-0.508
13,G60U A83C,0.15
14,U33A G117U,-5.29
15,A90C C123U,0.206
16,A5G C49A C53U C85A G135U,-3.84
17,C3U A6C C13A,-3.09
18,C123A G128C,-0.87
19,A74G C102G U132C,-5.92
20,C11A C115U G122U,-0.883
21,C8G A18C A37C G120C,0.00671
22,C72U A75U C114A G122C,-2.52
23,G45U C73U G110A G122A G128C,-6.61
